These results are taken from patent publication US20090203134A1, “REMEDY FOR NERVE CELL REGENERATION” (Kyoto University, priority 2005, published 2009).

Assay [1] has as its system Muller cells. The assay can be described thus: Retinal organ culture, BrdU immunostaining of divided cells. It is filed as cell-based, rat. As to conditions: 4 days. On the procedure: (§1) The retina excluding the pigment epithelium was obtained from a 6-week-old adult DA rat (obtained from Shimizu Laboratory Supplies Co., Ltd. (Kyoto)) and a retinal organ culture was then carried out on a Millicell chamber filter. The retinal organ culture was conducted according to a method described in Methods 2002; 28: 387-395 and Brain Res 2002; 954: 286-293. The culture medium used was 50% Minimum Essential Medium +HEPES (Invitrogen Corporation)/25% Hank's solution (Invitrogen Corporation)/25% inactivated horse serum/200 μM L-glutamine/5.75 mg/ml glucose.
Wnt3a (100 ng/ml; R&D Systems) and BrdU (5ng/ml; SIGMA) were added to the culture medium everyday and a frozen specimen was then prepared after 4 days, followed by investigating the presence or absence of BrdU-positive divided cells by an immunological staining with a BrdU antibody.
Further, an inhibitor of glycogen synthase kinase 3β(GSK-3β), AR-A014418(J, Biol. Chem., Vol, 278, No. 46, p45937-45945, 2003), was added to a culture medium for the retina organ culture and the effect thereof was examined. […] In contrast, the number of BrdU-positive cells in control without the addition of AR-AO14418 was small.

For assay [2], the system named is Muller cells. The assay can be described thus: Retinal organ culture, Rhodopsin expression of divided cells (differentiation into retinal nerve cells). It is filed as cell-based, rat. As to conditions: 4 day culture with Wnt3a, then 1 week without Wnt3a. On the procedure: as §1
Further, after 4 day culture with the addition of Wnt3a, the culture medium was changed, and the culture was then cultured for 1 week without Wnt3a.

Take `COc1ccc(CNC(=O)Nc2ncc([N+](=O)[O-])s2)cc1` [AR-A014418, reference compound]: the “number of BrdU-positive cells” value with Muller cells [1] (retina organ culture, 5 μM AR-A014418 together with BrdU, versus control without addition, FIG. 4) is reported as “the number of BrdU-positive cells was increased”.

B1: Wnt3a: Wnt3a protein (R&D Systems), a secretory glycoprotein of the Wnt family (protein, UniProt P56704 19-352, looked up)
Protein Wnt-3a: SYPIWWSLAVGPQYSSLGSQPILCASIPGLVPKQLRFCRNYVEIMPSVAEGIKIGIQECQHQFRGRRWNCTTVHDSLAIFGPVLDKATRESAFVHAIASAGVAFAVTRSCAEGTAAICGCSSRHQGSPGKGWKWGGCSEDIEFGGMVSREFADARENRPDARSAMNRHNNEAGRQAIASHMHLKCKCHGLSGSCEVKTCWWSQPDFRAIGDFLKDKYDSASEMVVEKHRESRGWVETLRPRYTYFKVPTERDLVYYEASPNFCEPNPETGSFGTRDRTCNVSSHGIDGCDLLCCGRGHNARAERRREKCRCVFHWCCYVSCQECTRVYDVHTCK
In the case of B1, in the assay with Muller cells [1] (adult DA rat retinal organ culture, Wnt3a 100 ng/ml added everyday, compared with control without Wnt3a, FIG. 1), the “BrdU-positive divided cells (immunological staining with a BrdU antibody)” value is “many BrdU-positive divided cells in the retinal inner nuclear layer (INL)”. Besides, the “ratio of the divided cells (number of divided cells in INL)” value with Muller cells [1] (adult DA rat retinal organ culture, Wnt3a 100 ng/ml, FIG. 2) is listed as “dramatic increase in the number of the divided cells in INL”. In addition, the “identity of divided cells (glutamine synthetase and BrdU immunological staining)” value in the assay with Muller cells [1] (adult DA rat retinal organ culture, Wnt3a 100 ng/ml, FIG. 3) is on record as “most of these divided cells were identified as glutamine synthetase positive Muller cells”. The “expression of Rhodopsin (marker of the visual cells) in divided cells” value in the assay with Muller cells [2] was “a part of the divided cells express Rhodopsin”.
